Measured values reported in US8304388B2, “Imaging agents” (GE Healthcare Limited, priority 2006, dated 2012).
Bridges are numbered along the chain shown (N, C = ends). Where no end group is shown, it is not given here. 99mTc‑Chelate II = tetraamine chelate labelled with 99mTc, on the N-terminus

B1: Imaging Agent 1: [99mTc-Chelate II]-…-NH2 (peptide)
peptide: {99mTc‑Chelate II}-ANAALKAGELYKCILY-NH2
modifications: also: 99mTc complex

What was measured:
[1] = target: collagen type I (Homo sapiens, UniProt P02452+P08123); experiment: In vitro binding to collagen type I coated plate
Description: A Maxisorp plate was incubated overnight at 4° C. with 50 μL or 100 μL 0.1 mg/mL collagen type I. All solutions were removed from the wells using a pipette. Wells were washed twice with 200 μL PBS, and then incubated with 150 μL PBS containing 0.1% BSA for 30 minutes at room temperature. Wells were washed five times with 200 μL PBS, and then 90 μL PBS was added to each well. 10 μL of neat (and two-fold serially diluted in PBS) Imaging Agent 1 was added to the wells in quadruplicate. The plate was sealed and incubated for 1 hour at 37° C.
The wells were washed seven times with ice-cold PBS (200 μL); and then the wells were transferred to a glass vial and counted (measured) for ^99mTc-activity using a Wallac counter for a 60 s count for each sample.
FIG. 1 illustrates binding of Imaging Agent 1 to collagen type I coated wells from one experiment.

[2] = target: collagen type I; experiment: saturation binding of 99mTc-labelled peptide to collagen type I coated Maxisorp wells, one-site hyperbola fit

Sequence of collagen type I (Homo sapiens, UniProt P02452+P08123) (P02452 162-1218 limits assumed): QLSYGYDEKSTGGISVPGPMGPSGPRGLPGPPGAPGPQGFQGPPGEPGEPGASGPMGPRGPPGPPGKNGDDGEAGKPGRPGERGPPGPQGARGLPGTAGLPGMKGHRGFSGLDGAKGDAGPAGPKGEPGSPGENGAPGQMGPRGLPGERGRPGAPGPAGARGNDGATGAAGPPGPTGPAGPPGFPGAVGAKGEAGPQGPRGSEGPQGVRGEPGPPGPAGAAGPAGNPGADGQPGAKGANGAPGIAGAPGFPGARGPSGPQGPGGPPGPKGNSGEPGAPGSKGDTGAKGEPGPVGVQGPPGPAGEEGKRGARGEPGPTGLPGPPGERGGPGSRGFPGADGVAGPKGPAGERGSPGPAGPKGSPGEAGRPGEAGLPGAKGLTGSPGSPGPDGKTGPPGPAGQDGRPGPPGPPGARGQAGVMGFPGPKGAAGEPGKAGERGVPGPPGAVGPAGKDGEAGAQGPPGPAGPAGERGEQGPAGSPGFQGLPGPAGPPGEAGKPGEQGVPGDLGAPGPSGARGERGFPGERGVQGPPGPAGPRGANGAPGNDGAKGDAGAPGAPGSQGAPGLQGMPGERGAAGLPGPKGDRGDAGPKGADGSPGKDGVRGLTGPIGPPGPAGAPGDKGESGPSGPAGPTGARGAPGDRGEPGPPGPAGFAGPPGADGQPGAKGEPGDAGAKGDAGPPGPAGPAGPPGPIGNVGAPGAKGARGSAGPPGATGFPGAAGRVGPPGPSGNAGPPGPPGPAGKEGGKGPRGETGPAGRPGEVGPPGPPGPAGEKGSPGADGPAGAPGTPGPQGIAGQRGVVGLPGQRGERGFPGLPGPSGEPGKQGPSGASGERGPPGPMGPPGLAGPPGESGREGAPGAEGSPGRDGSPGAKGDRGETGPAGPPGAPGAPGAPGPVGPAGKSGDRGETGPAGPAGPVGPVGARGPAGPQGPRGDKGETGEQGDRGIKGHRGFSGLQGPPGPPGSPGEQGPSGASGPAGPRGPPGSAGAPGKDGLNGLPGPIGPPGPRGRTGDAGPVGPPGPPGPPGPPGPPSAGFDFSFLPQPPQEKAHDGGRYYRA
Sequence of collagen type I (Homo sapiens, UniProt P02452+P08123) (P08123 80-1119 limits assumed): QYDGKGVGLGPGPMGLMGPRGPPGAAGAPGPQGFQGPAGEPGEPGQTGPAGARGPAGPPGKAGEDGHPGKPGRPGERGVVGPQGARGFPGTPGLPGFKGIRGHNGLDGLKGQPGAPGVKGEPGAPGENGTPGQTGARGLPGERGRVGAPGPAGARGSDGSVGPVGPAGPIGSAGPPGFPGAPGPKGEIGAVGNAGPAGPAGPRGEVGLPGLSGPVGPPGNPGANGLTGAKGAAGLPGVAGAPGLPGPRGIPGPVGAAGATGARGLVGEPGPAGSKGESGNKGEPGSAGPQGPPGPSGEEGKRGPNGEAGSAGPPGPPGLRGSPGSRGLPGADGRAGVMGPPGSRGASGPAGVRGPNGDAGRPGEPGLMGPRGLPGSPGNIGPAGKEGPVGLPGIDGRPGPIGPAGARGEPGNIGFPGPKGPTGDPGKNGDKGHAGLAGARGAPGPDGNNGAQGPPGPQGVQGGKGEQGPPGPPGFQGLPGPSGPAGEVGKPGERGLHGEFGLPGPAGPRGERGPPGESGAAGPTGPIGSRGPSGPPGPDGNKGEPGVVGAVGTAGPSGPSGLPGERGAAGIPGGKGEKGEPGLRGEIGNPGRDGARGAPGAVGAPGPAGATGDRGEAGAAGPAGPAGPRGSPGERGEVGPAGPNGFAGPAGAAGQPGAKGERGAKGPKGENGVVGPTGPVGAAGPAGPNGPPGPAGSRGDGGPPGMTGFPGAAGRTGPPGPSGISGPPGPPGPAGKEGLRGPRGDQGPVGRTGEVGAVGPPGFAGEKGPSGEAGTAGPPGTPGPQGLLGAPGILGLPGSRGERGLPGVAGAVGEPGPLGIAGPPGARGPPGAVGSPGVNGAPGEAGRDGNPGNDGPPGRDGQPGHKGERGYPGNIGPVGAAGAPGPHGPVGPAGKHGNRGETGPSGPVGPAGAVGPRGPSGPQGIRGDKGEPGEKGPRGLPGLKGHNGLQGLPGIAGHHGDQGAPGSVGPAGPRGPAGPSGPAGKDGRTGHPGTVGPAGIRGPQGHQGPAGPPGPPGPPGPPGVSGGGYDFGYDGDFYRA

Molecule	binding to collagen in vitro [1]	Bmax [2] [attomoles]	Kd [2] [nM]
^123I-labelled Ac-CKELNVLYTC-NH2 (disulfide 1-10; also: 123I-labelled) [Imaging Agent 36]	bind with high affinity to collagen in vitro	–	–
^123I-labelled Ac-KELNLVYT-NH2 (also: 123I-labelled) [Imaging Agent 29]	bind with high affinity to collagen in vitro	–	–
^123I-labelled KELNVLYT-NH2 (also: 123I-labelled) [Imaging Agent 35]	bind with high affinity to collagen in vitro	–	–
B1	–	1070	194
